Target: rat neuronal nicotinic acetylcholine receptor, α7 subtype (rat) (UniProt Q05941)
Experiment: cell-based or functional assay

UniProt Q05941, sequence (Q05941 23-502): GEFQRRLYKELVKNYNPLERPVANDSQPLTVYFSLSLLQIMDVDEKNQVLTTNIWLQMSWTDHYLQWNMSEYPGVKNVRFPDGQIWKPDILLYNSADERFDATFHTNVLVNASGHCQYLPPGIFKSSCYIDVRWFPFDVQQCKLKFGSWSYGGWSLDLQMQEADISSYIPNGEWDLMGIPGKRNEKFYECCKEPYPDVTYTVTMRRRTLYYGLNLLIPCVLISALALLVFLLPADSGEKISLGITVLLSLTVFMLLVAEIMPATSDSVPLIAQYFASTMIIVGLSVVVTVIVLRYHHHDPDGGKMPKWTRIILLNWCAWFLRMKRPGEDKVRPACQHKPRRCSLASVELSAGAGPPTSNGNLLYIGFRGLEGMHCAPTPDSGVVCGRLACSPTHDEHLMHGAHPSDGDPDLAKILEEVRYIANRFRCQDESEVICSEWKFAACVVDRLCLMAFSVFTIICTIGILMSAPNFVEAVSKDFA

Q: α-conotoxin peptide PnIA was tested. Which IC50 of antagonistic activity (oocyte electrophysiology) did it give?
A: 229 nmol

Reference: patent publication US20040192610A1
